These results are taken from publication PMC5721652, “Nanobodies targeting conserved epitopes on the major outer membrane protein of Campylobacter as potential tools for control of Campylobacter colonization” (Veterinary Research, 2017).

The target in assay [1] is T1, major outer membrane protein (MOMP) of Campylobacter jejuni KC40 (Campylobacter jejuni KC40 (stand-in: …, UniProt P80672, strain)).
T1 construct: major outer membrane protein (MOMP, porA) of C. jejuni strain KC40; the printed entry P80672 is that of strain NCTC 11168, to which the peptides of the pull-down matched; The legends call the purified protein a MOMP monomer; the introduction describes MOMP as a trimeric porin; Kept in 0.6% octyl-POE after purification; also called purified MOMP monomer; native MOMP; source: purified from C. …
Description: ELISA; competition: MOMP coated at 1 µg/mL; serial dilutions of strep-tagged nanobody and a constant 5 x 10^-2 µg/mL of His-tagged Nb84 added simultaneously; bound His-tagged Nb84 detected with anti-Histidine tag antibody. The conditions noted are these: both partners purified. In general terms: In an ELISA, binding on a coated surface is turned into a signal by an enzyme label.

The target of assay [2] is T1, major outer membrane protein (MOMP) of …. In words: far-Western, overlay or dot blot; purified MOMP run on a non-denaturing gel, transferred to PVDF, incubated with 5 µg/mL His-tagged nanobody for 1 h at 4 °C, detected with anti-Histidine tag antibody. The conditions noted are these: both partners purified.
Assay [3] shares this target. In words: ELISA; purified MOMP coated at 1 µg/mL; His-tagged nanobody at 50 µg/mL, or tenfold serial dilutions of His-tagged Nb84 (saturation binding); detected with anti-Histidine tag antibody. As to conditions: both partners purified.
For assay [4] the target is unchanged. In words: pull-down; His-tagged nanobody (20 µL of 1.0 mg/mL) mixed with 500 µL outer membrane proteins of C. jejuni KC40 (1.2 mg/mL), 2 h at 4 °C, captured overnight at 4 °C on Co2+-coated Dynabeads; eluted band cut from a silver-stained gel and identified by LC-MS/MS. The conditions noted are these: one partner purified.
The target is the same in assay [5]. Description: MST; saturation: Dylight 650 labelled nanobody constant at 32 nM, twofold serial dilutions of MOMP from 0.3 nM to 5.0 µM; 20 mM sodium phosphate pH 7.6, 150 mM NaCl, 0.6% octyl-POE. The conditions noted are these: both partners purified.

B1: Nb24, strep-tagged (VHH)
VHH: QVQLQESGGGLVQPGGSLRLSCAASGRTFSRFSDNYVMGWFRQAPGKEREVVGAIRWSVASTYYADFVKGRFTISRDSAMNTMYLQMNNLKPEDTAVYYCATKFSGPINGGQTSYNYWGQGTQVTVSS
notes: as the VHH of m5; also called strep-tagged Nb24; source: E. coli, purified (StrepTrap HP); not shown: strep-tag, C-terminal, kept
On to B1, for which the binding result in assay [1] is “binds”.

B2: Nb24, His-tagged (VHH)
VHH: B1 VHH
notes: Cloned in pHen6C; one of the six nanobodies with broad specificity; also called anti-Campylobacter nanobody; not shown: His-tag, C-terminal, kept
Consider B2, for which the binding result in assay [2] is listed as “binds”.

B3: Nb32, His-tagged (VHH)
VHH: QVQLQESGGGLVQAGDSLRLSCAASGGTFSNYVLGWFRQAPGKEREFVAAIRWSGERTYYADSVKGRFTISSDNAKYRQVTVYLEMNSLKPEDTAVYYCAARAPNYYSDSQPPVTLSEYKVWGQGTQVTVSS
notes: One of the six nanobodies with less broad specificity; also called anti-Campylobacter nanobody; not shown: His-tag, C-terminal, kept
As for B3, the binding result in assay [3] is reported as “binds”.

B4: Nb32, strep-tagged (VHH)
VHH: B3 VHH
notes: as the VHH of m9; also called strep-tagged Nb32; source: E. coli, purified (StrepTrap HP); not shown: strep-tag, C-terminal, kept
B4: the binding result in assay [1] is on record as “binds”.

B5: Nb5, His-tagged (VHH)
VHH: QVQLQESGGGLVQAGGSLRLSCAASGTIISLNSMGWYRQAPGKQRELVAALTSGGTTNYADSVKGRFTISRVNAKNTVYLQMNSLKPEDTAVYYCNAKLITTAQGMVLASWGQGTQVTVSS
notes: as for B2
In the case of B5, the binding result in assay [4] was “binds”.

B6: Nb5, strep-tagged (VHH)
VHH: B5 VHH
notes: as the VHH of m2; the printed oligo encodes the tag directly after the end of the nanobody; also called strep-tagged Nb5; source: E. coli, purified (StrepTrap HP); not shown: strep-tag, C-terminal, kept
In the case of B6, the binding result in assay [1] is “binds”.

B7: Nb45, His-tagged (VHH)
VHH: QVQLQESGGGLVQAGGSLRLACVASSTIFSINNMAWYRQAPGKQRELVARITAGGNTNYADSVKGRFTISKDKGKNTVRLQMNSLKPEDTGVYYCKCGGCGTPYSLSEDYWGQGTQVTVSS
notes: as for B3
On to B7, for which the binding result in assay [3] is recorded as “binds”.

B8: Nb45, strep-tagged (VHH)
VHH: B7 VHH
notes: as the VHH of m11; also called strep-tagged Nb45; source: E. coli, purified (StrepTrap HP); not shown: strep-tag, C-terminal, kept
For the molecule B8, in assay [1], the binding result is “binds”.

B9: Nb22, fluorescently labelled (VHH)
VHH: QVQLQESGGGLVQPGGSLRLSCAVSRTIFNFNNMGWYRQPPGKPRELVARITMNGRTDYADPVKGRFTISRDSAKNTLALQMNDLKGDDTAVYYCAARGAVRTGNLMPTDYWGQGTQVTVSS
notes: as the VHH of m3; probably the C-terminally His-tagged one; also called fluorescently labelled Nb22; source: E. coli, purified; labelled with Dylight 650 NHS Ester
With B9, the Kd in assay [5] was 118 ± 48 nM.

B10: Nb23, strep-tagged (VHH)
VHH: QVQLQESGGGLVQPGGSLRLSCAASGTIDNFNGMGWYRQAPGKQREWLARITMNGRTIYAESVEGRFTISRDKVKNTLALQMNSLKPEDTAVYYCNARGVLTPRGIHDYWGQGTQVTVSS
notes: as the VHH of m4; also called strep-tagged Nb23; source: E. coli, purified (StrepTrap HP); not shown: strep-tag, C-terminal, kept
Consider B10, for which the binding result in assay [1] is listed as “binds”.

B11: Nb23, His-tagged (VHH)
VHH: B10 VHH
notes: as for B2
With B11, the binding result in assay [2] was “binds”.

B12: Nb34, His-tagged (VHH)
VHH: QVQLQESGGGLVQAGGSLRLSCAASGRTSSSYAMGWFRQAPGKEREFVTAISWNGSKAYYSDSVKGRFTISRDNAKNTVYLQMNSLKPEDTAVYYCAQGAYRVVADPGEYDYWGQGTQVTVSS
notes: as for B3
Regarding B12, in assay [3], the binding result is “binds”.

B13: Nb34, strep-tagged (VHH)
VHH: B12 VHH
notes: as the VHH of m10; also called strep-tagged Nb34; source: E. coli, purified (StrepTrap HP); not shown: strep-tag, C-terminal, kept
Regarding B13, the binding result in assay [1] is “binds”.

B14: Nb15, His-tagged (VHH)
VHH: QVQLQESGGGLVQPGGSLRLSCAASGRTFRSYDMGWFRQAPGKEREFVAASAWSAGRTIYKNSVKGRFTISRDNTKDTMYLQMNDLKPEDTAVYFCAADRNPPPIYNEFYYYRASAYDYWGQGTQVTVSS
notes: One of the six nanobodies with less broad specificity; its name is printed only in the legend of Additional file 5; also called anti-Campylobacter nanobody; not shown: His-tag, C-terminal, kept
With B14, the binding result in assay [3] was “binds”.

B15: Nb15, strep-tagged (VHH)
VHH: B14 VHH
notes: as the VHH of m8; also called strep-tagged Nb15; source: E. coli, purified (StrepTrap HP); not shown: strep-tag, C-terminal, kept
On to B15, for which the binding result in assay [1] is listed as “binds”.

B16: Nb84, fluorescently labelled (VHH)
VHH: QVQLQESGGGLVQAGGSLRLSCKASGTIISINNMGWYRRSPGKERDMVARIFSSGTINYTDSVKGRFTISRDNAKNTVYLEMNSLKPEDTAIYYCNARLTTTAMGTIPNSWGQGTQVTVSS
notes: as the VHH of m7; probably the C-terminally His-tagged one; also called fluorescently labelled Nb84; labelled Nb84; source: E. coli, purified; labelled with Dylight 650 NHS Ester
The molecule B16 returned an equilibrium dissociation constant (Kd) in assay [5] of 422 ± 159 nM.

B17: Nb48, His-tagged (VHH)
VHH: QVQLQESGGGSVQAGESLRLACAASGSILSINIMRWYRQAPGKQRELVATIGRSGNTDLADFAKGRFTGSRDNGKNTVYLQMNNLKPEDTAVYYCNALLTTLSAQTGVYWGQGTQVTVSS
notes: as for B14
As for B17, the binding result in assay [3] is “binds”.

B18: Nb48, strep-tagged (VHH)
VHH: B17 VHH
notes: as the VHH of m12; also called strep-tagged Nb48; source: E. coli, purified (StrepTrap HP); not shown: strep-tag, C-terminal, kept
Turning to B18, the binding result in assay [1] is “binds”.

B19: Nb49, strep-tagged (VHH)
VHH: QVQLQESGGGLVQPGWSLRLSCAASSIFEINAMGWYRQPPGKQRERVATITDGFGTNYADSVKGRFTISRDNAKNTVYLQMNSLRPEDTAVYYCSAQRTVPYKMTYWGQGTQVTVSS
notes: as the VHH of m6; also called strep-tagged Nb49; source: E. coli, purified (StrepTrap HP); not shown: strep-tag, C-terminal, kept
Consider B19, for which the binding result in assay [1] is “binds”.

B20: Nb49, His-tagged (VHH)
VHH: B19 VHH
notes: as for B2
Regarding B20, in assay [2], the binding result is reported as “binds”.

B21: Nb63, His-tagged (VHH)
VHH: QVQLQESGGGLVQPGGSLRLSCVASGSTFAINVMGWYRRAPGKQRELVATVTSGSTTYSRVRSSDTTYADSVKGRFTISRDNAKNMVYLQMNSLKPEDTAVYYCNARTRNTIATSDGMDYWGKGTQVTVSS
notes: as for B14
For the molecule B21, the binding result in assay [3] is “binds”.

B22: Nb63, strep-tagged (VHH)
VHH: B21 VHH
notes: as the VHH of m13; also called strep-tagged Nb63; source: E. coli, purified (StrepTrap HP); not shown: strep-tag, C-terminal, kept
On to B22, for which, in assay [1], the binding result is listed as “binds”.

As a reminder, the Kd is the constant that tells how readily two partners part at equilibrium.
